Earlier results, collected in patent US9034821B2, “Pharmaceutical composition” (priority 2011, dated 2015).
Like-named read-outs stand apart in the source and are kept apart here.

Cys-Tyr-Ile-Gln-Asn-Cys-Pro-Leu-Gly-NH2 [oxytocin]
pH of best stability (aqueous solutions of different pH): 4.5 | degradation of oxytocin (buffered aqueous solution of pH 3, stored at 70° C. for 7 days): about 15 % (area %) | degradation of oxytocin (buffered aqueous solution, pH 4, stored at 70° C. for 7 days): approximately 35 % (area %)
